From patent publication US20220016257A1 (Daiichi Sankyo, published 2022)
Changes are numbered by the printed parent chain.

B1: humanized anti-CDH6 antibody H02L02 (antibody, human IgG1, kappa, V domains shown)
VH: EVQLVQSGAEVKKPGASVKVSCKASGYTFTRNFMHWVRQAPGQGLEWMGWIYPGDGETEYNQKFQGRVTITADRSTSTAYMELSSLRSEDTAVYFCARGVYGGFAGGYFDFWGQGTLVTVSS
VL: DIQMTQSPSSLSASVGDRVTITCKASQNIYKNLAWYQQKPGKAPKLLIYDANTLQTGVPSRFSGSGSGSDFTLTISSLQPEDFATYFCQQYYSGWAFGQGTKVEIKR
notes: hH02 heavy chain and hL02 light chain, human IgG1/kappa; also called H02L02 antibody; humanized hG019
B2: humanized anti-CDH6 antibody H04L02 (antibody, human IgG1, kappa, V domains shown)
VH: B1 VH with E1Q, V37I, N61A, I70L, F95Y
VL: B1 VL
notes: hH04 heavy chain and hL02 light chain, human IgG1/kappa; also called H04L02 antibody; humanized hG019
B3: humanized anti-CDH6 antibody H01L02 (antibody, human IgG1, kappa)
heavy: not shown
light: DIQMTQSPSSLSASVGDRVTITCKASQNIYKNLAWYQQKPGKAPKLLIYDANTLQTGVPSRFSGSGSGSDFTLTISSLQPEDFATYFCQQYYSGWAFGQGTKVEIKRTVAAPSVFIFPPSDEQLKSGTASVVCLLNNFYPREAKVQWKVDNALQSGNSQESVTEQDSKDSTYSLSSTLTLSKADYEKHKVYACEVTHQGLSSPVTKSFNRGEC
notes: hH01 heavy chain and hL02 light chain, human IgG1/kappa; also called H01L02 antibody; humanized hG019
B4: humanized anti-CDH6 antibody H02L03 (antibody, human IgG1, kappa, V domains shown)
VH: B1 VH
VL: B1 VL with P40L, K42E, A43G, S69T, F87Y
notes: hH02 heavy chain and hL03 light chain, human IgG1/kappa; also called H02L03 antibody; humanized hG019
B5: rat anti-CDH6 monoclonal antibody rG019 (antibody, IgG2b, V domains shown)
VH: QVQLQQSGAELVKPGSSVKISCKASGYTFTRNFMHWIKQQPGNGLEWIGWIYCGDGETEYNQKFNGKATLTADRSSSTAYMELSRLTSEDSAVYFCARGVYGGFAGGYFDFWGQGVMVTVSS
VL: DIQMTQSPSLLSASVGDRVTLNCKASQNIYKNLAWYQQKLGEGPKLLIYDANTLQTGIPSRFSGSGSGSDFTLTISSLQPEDVATYFCQQYYSGWAFGGVTNLELKRA
notes: Rat antibody purified from hybridoma supernatant; also called rG019 antibody; clone rG019

Legend:
[1] = biological target: T1, Recombinant Human CDH6 Fc His chimera (R&D Systems, Inc.) (human, UniProt P55285 54-615); test: SPR (Biacore T200), antigen captured by immobilized anti-His antibody, antibody as analyte, steady state affinity model
T1 construct: Bought reagent; Captured on the chip by an anti-His antibody; also called the antigen; not shown: Fc portion of the bought chimera; His tag of the bought chimera
T1 sequence: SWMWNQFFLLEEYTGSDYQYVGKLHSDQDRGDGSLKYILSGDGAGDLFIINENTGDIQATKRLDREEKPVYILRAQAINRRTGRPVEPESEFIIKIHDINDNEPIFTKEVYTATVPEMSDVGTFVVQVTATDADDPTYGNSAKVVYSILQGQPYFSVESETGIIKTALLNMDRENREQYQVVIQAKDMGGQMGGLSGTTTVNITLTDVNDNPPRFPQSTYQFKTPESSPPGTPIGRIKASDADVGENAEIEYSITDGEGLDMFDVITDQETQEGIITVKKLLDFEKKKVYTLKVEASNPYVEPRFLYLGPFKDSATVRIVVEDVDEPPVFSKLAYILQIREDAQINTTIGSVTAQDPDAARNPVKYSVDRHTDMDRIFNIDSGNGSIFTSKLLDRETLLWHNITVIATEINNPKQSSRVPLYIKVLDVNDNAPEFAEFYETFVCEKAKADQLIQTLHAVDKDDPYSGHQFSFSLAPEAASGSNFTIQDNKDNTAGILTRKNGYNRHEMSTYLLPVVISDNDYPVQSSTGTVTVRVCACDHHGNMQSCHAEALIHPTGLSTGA
Description: The dissociation constant between the antibody and the antigen (Recombinant Human CDH6 Fc His chimera, R&D Systems, Inc.) was measured by using Biacore T200 (GE Healthcare Biosciences Corp.), according to a capture method, which comprises capturing the antigen as a ligand with the immobilized anti-His antibody and then measuring the dissociation constant using an antibody as an analyte. Approximately 1000 RU of the anti-histidine antibody (His capture kit, GE Healthcare Biosciences Corp.) was covalently bound to sensor chip CM5 (GE Healthcare Biosciences Corp.) by the amine coupling method. The antibody was also immobilized onto reference cells in the same manner as above. HBS-P+(10 mM HEPES pH 7.4, 0.15 M NaCl, 0.05% Surfactant P20) supplemented with 1 mM CaCl₂ was used as a running buffer. The antigen was added onto the anti-histidine antibody-immobilized chip for 60 seconds, and a dilution series solution (0.391 to 100 nM) of the antibody was then added at a flow rate of 30 μl/min for 300 seconds. Subsequently, the dissociation phase was monitored for 600 seconds. As a regeneration solution, a glycine solution (pH 1.5) supplemented with 5 M MgCl₂ was added twice at a flow rate of 10 μl/min for 30 seconds. A Steady State Affinity model in analysis software (BIAevaluation software, version 4.1) was used in data analysis, and the dissociation constant (KD) was calculated.

[2] = biological target: T2, cynomolgus monkey CDH6 (full-length, on cells) (cynomolgus monkey, UniProt P55285 54-790 (human entry)); test: Cell-ELISA and flow cytometry screening of hybridoma supernatants on transfected cells
T2 construct: Expressed from pcDNA3.1-cynoCDH6 on transfected cells; also called cynoCDH6
T2 sequence: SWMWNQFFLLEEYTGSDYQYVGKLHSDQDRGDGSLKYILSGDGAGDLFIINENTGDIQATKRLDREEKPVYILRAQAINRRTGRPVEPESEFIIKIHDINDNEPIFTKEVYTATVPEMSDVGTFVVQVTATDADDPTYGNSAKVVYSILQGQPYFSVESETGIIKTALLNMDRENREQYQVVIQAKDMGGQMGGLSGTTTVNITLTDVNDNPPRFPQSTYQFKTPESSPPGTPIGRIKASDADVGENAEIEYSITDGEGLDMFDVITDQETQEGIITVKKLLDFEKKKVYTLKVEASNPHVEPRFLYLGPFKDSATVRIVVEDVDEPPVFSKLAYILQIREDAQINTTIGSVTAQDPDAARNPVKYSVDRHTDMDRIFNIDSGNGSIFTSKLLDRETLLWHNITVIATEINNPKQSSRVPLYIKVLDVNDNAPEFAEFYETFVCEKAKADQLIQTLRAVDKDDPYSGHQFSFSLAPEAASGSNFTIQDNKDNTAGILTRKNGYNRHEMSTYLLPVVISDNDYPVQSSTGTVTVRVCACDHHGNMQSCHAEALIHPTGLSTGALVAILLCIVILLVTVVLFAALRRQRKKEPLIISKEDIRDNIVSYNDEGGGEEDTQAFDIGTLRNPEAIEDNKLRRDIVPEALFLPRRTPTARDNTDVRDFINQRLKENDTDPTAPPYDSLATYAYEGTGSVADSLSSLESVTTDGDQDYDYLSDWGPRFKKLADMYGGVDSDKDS
Description: A coloring reaction was carried out with occasional stirring. Thereafter, 1 M HCl was added to the plate (100 μL/well) to terminate the coloring reaction, followed by measurement of the absorbance at 490 nm using a plate reader (ENVISION: PerkinElmer, Inc.).
The obtained cell suspension was used in flow cytometry analysis.
The binding specificity to cynomolgus monkey CDH6 of an antibody produced from the human CDH6- and cynomolgus monkey CDH6-binding antibody-producing hybridomas that had been selected by Cell-ELISA in Example 1)-4 was further confirmed by flow cytometry. […] Thereafter, the cells were suspended by the addition of the culture supernatant from each hybridoma. The cells were left standing at 4° C. for 1 hour. The cells were washed twice with PBS supplemented with 5% FBS, and thereafter, the cells were suspended by the addition of Anti-Rat IgG FITC conjugate (Sigma-Aldrich Co. LLC) that had been 500-fold diluted with PBS supplemented with 5% FBS. The cells were left standing at 4° C. for 1 hour. The cells were washed twice with PBS supplemented with 5% FBS, and then re-suspended in PBS supplemented with 5% FBS and 2 μg/ml 7-aminoactinomycin D (Molecular Probes, Inc.), followed by detection using a flow cytometer (FC500; Beckman Coulter, Inc.).

Binder | Kd [1] [nM] | binding result [2]
B1 | 1.1 | –
B2 | 1.1 | –
B3 | 1.5 | –
B4 | 1.4 | –
B5 | – | binds
